Measured values taken from US7070943B2 (priority 1998, dated 2006).

How the values were obtained:
Format in all cases: cell-based, Human
U937 cells = assay: Cell cycle distribution and apoptotic (sub-G1) cells by DNA content flow cytometry; conditions: U937, 170 nM
Description: FIG. 11 presents growth and viability curves (a) as well as cell cycle distribution (b) of U937 cells maintained in the absence (CTRL) and presence of 170 nM (2.0 μg/ml) ONCONASE® (ONC) for up to 72 h. The percentage of dead cells was estimated based on the trypan blue exclusion test. The percentage of cells in the respective phases was estimated flow cytometrically based on their DNA content. Apoptotic cells (Ap) were recognized as the cells with fractional DNA content (sub-G1), as previously described;
(§1) Anti-cyclin D3 mAb immunofluorescence in combination with DNA content was measured by multiparameter flow cytometry (a). The cells were growing either in the absence (Exp, exponential growth) or in the presence of 170 nM ONCONASE® for 48 hours (Onc). There were 48%, 38% and 14% of cells in G1, S, and G2/M in Exp culture compared with 64%, 24% and 13% cells in G1, S, and G2/M, respectively, in Onc culture. The scattergrams represent bivariate distributions of the cells with respect to their cyclin D3 vs. DNA content associated fluorescence intensities. The upper level of the isotype-matched control (mean fluorescence+3 standard deviations) is marked in the Exp panel with a dashed line. The bar plots represent the mean FITC (anti-cyclin D3 mAb) fluorescence values (arbitrary units) of the cells in different phases of the cycle (gated based on differences in DNA content as shown in the Exp panel), after subtraction of the background fluorescence, i.e., mean fluorescence of the same cells but stained with isotype-matched control IgG antibody. Western blots (b) show expression of cyclin D3 in control culture and in the culture treated with Onconase 48 h;
Following incubations in the absence or presence of ONCONASE®, the cells were washed with phosphate-buffered saline (PBS) and fixed in suspension in either ice-cold 80% ethanol or absolute methanol for up to 24 h. After fixation, the cells were washed twice with PBS and then suspended in 1 ml of 0.25% Triton X-100 (Sigma, St. Louis, Mo., USA) in PBS on ice for 5 min. The cells were then centrifuged (300 g, 5 min), the cell pellet suspended 100 μl PBS containing 0.5 μg of the anti-cyclin (or anti-CKI) mAb and 1% bovine serum albumin (BSA; Sigma), and incubated for 2 h at room temperature. Anti-cyclin D3 (clone G107-565); anti-cyclin E (clone HE12); anti-p16^INK4a (clone G175-405); and […] (clone SX118) and anti-p27^KIP1 (clone G173-524) mAbs, all were obtained from PharMingen (San Diego, Calif., USA). After incubation with the respective mAbs the cells were rinsed with PBS containing 1% BSA and incubated with the FITC-conjugated goat anti-mouse IgG antibody (Molecular Probes) diluted 1:30 in PBS containing 1% BSA for 30 min at room temperature in the dark. […]
Cellular fluorescence was measured with the ELITE ESP flow cytometer/cell sorter (Coulter, Miami, Fla., USA) using either argon ion laser (emission at 488 nm) alone or combined with helium-cadmium laser (emitting UV light). In the first case, fluorescence signals were collected using the standard configuration of the flow cytometer (green fluorescence, representing directly or indirectly FITC-labeled antibodies; red fluorescence representing CYCHROME® tagged anti-pRB^T mAb). In the second case, DNA content was analyzed based on DAPI fluorescence (blue emission) excited by UV light, while the anti-pRB^P− mAb (FITC) and anti-pRB^T (Cy-Chrome®) related emission was excited with blue light laser. […]

cyclin D3 [1] = assay: Cyclin D3 expression by multiparameter flow cytometry in U937 cells; conditions: U937, 170 nM
Description: as §1, with “The cells were growing either in the absence (Exp, exponential growth) or in the presence of 170 nM ONCONASE® for 48 hours (Onc).” left out, “Western blots (b) show expression of cyclin D3 in control culture and in the culture treated with Onconase 48 h;” left out
Cellular fluorescence was measured with the ELITE ESP flow cytometer/cell sorter (Coulter, Miami, Fla., USA) using either argon ion laser (emission at 488 nm) alone or combined with helium-cadmium laser (emitting UV light). […] In the second case, DNA content was analyzed based on DAPI fluorescence (blue emission) excited by UV light, while the anti-pRB^P− mAb (FITC) and anti-pRB^T (Cy-Chrome®) related emission was excited with blue light laser.

cyclin D3 [2] = assay: Western blot of cyclin D3 in U937 cells; conditions: U937, 48 h
Description: as §1
To reveal specificity of the antibodies that were used, a standard immunoblotting procedure was used on cellular lysates.

p16^INK4a = p16^INK4a expression by flow cytometry in U937 cells; conditions: U937, 170 nM, 72 hours
Description: Proportions of cells in different phases of the cycle were the same as in FIG. 12;
Following incubations in the absence or presence of ONCONASE®, the cells were washed with phosphate-buffered saline (PBS) and fixed in suspension in either ice-cold 80% ethanol or absolute methanol for up to 24 h. After fixation, the cells were washed twice with PBS and then suspended in 1 ml of 0.25% Triton X-100 (Sigma, St. Louis, Mo., USA) in PBS on ice for 5 min. The cells were then centrifuged (300 g, 5 min), the cell pellet suspended 100 μl PBS containing 0.5 μg of the anti-cyclin (or anti-CKI) mAb and 1% bovine serum albumin (BSA; Sigma), and incubated for 2 h at room temperature. […]
Cellular fluorescence was measured with the ELITE ESP flow cytometer/cell sorter (Coulter, Miami, Fla., USA) using either argon ion laser (emission at 488 nm) alone or combined with helium-cadmium laser (emitting UV light). In the first case, fluorescence signals were collected using the standard configuration of the flow cytometer (green fluorescence, representing directly or indirectly FITC-labeled antibodies; red fluorescence representing CYCHROME® tagged anti-pRB^T mAb). In the second case, DNA content was analyzed based on DAPI fluorescence (blue emission) excited by UV light, while the anti-pRB^P− mAb (FITC) and anti-pRB^T (Cy-Chrome®) related emission was excited with blue light laser.

B1: ONCONASE®: basic protein of 12,000 MW isolated from oocytes or early embryos of Rana pipiens, homologous to pancreatic RNase A (protein, UniProt P22069 1-104, looked up)
Protein P-30: QDWLTFQKKHITNTRDVDCDNIMSTNLFHCKDKNTFIYSRPEPVKAICKGIIASKNVLTTSEFYLSDCNVTSRPCKYKLKKSTNKFCVTCENQAPVHFVGVGSC
cells in G2/M (U937 cells; 48 hours (Exp culture 14%)): 13%
cells in S (U937 cells; 48 hours (Exp culture 38%)): 24%
cells in G1 (U937 cells; 48 hours (Exp culture 48%)): 64%
proportion of cells in G0/1 phase (U937 cells; after 72 h (from 47% in control)): ~70%
percentage of apoptotic cells (sub-G1) (U937 cells; up to 72 h (from 2%)): 6%
decrease of overall level of cyclin D3 (cyclin D3 [1]; after 24 h): about 20%
reduction of overall level of cyclin D3 (cyclin D3 [1]; after 48 hours): over 70%
expression of cyclin D3, Western blot (cyclin D3 [2]): decrease in expression of cyclin D3
increase in level of p16^INK4a (p16^INK4a): over six-fold
